The text below walks through data of publication doi:10.1101/2021.02.05.429362 (bioRxiv, 2021).

Where “and” joins values, the source holds several entries; their conditions need not be identical. Equal values may be shown once. Read-outs that look alike come from different tables or passages of the source. Where no end group is shown, it is not given here.

Series [1] addresses T1, G3BP1-NTF2 (residues 1-139) (human (by the printed UniProt entry …)). The experiment in a line: ITC. A general note: In ITC the heat of successive injections is recorded.
Series [2] has as its target G3BP1-NTF2 H31A (human (by the printed UniProt entry …, UniProt Q13283, H31A)). In words: ITC.
Series [3] addresses T1, G3BP1-NTF2 (residues 1-139). The experiment in a line: ITC. The source holds these as a separate data set.
Series [4] shares this target. In words: ITC. This is another data set of the same source.
Series [5] has the same target. The experiment in a line: nanoDSF. On the technique in general: DSF heats the sample and reads unfolding from a dye or from intrinsic fluorescence.
For series [6] the target is unchanged. In words: nanoDSF. The source holds these as a separate data set.
Series [7] shares this target. In words: nanoDSF. The source holds these as a separate data set.

Sequence of G3BP1-NTF2 H31A (human (Q13283 1-139 H31A): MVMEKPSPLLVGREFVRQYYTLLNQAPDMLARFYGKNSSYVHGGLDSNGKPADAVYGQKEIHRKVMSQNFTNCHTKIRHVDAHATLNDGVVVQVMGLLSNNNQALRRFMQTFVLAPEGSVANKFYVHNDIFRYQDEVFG

B1: GFP-USP10^1-28 (domain or fragment)
chain: MALHSPQYIFGDFSPDEFNQFFVTPRSS
A word on the Kd: it is the constant that tells how readily two partners part at equilibrium. A higher Kd goes with lower affinity. As for B1, the dH in series [1] is -17 ± 1 kcal/mol; in series [2], -18 kcal/mol. Further, the figures for the equilibrium dissociation constant (Kd) in series [2], in series [3] and in series [4] were 3000 nM, 500 nM and 1500 ± 500 nM, respectively.

B2: Caprin-1^356-386 peptide (peptide)
peptide: RQRVQDLMAQMQGPYNFIQDSMLDFENQTLD
For the molecule B2, the dTm came out at 1.3 °C in series [5], 4 °C in series [6] and 1.5 °C in series [7].

B3: GFP-Caprin-1^356-386 L378A (domain or fragment)
chain: {GFP}-RQRVQDLMAQMQGPYNFIQDSMADFENQTLD
For the molecule B3, in series [1], the Kd is around 20000 nM.

B4: GFP-Caprin-1^356-386 (domain or fragment)
chain: {GFP}-RQRVQDLMAQMQGPYNFIQDSMLDFENQTLD
On to B4, for which the dH in series [1] is -18 kcal/mol and -17 kcal/mol; in series [2], -16 kcal/mol. The results for the Kd in series [2], in series [3] and in series [4] were 15000 nM, 1400 nM and 4000 ± 2000 nM, respectively.
